Measured values as given in patent US20230357354A1 (ENCEFA, published 2023).

How the values were obtained:
[1] = target: human CD38 on cells (Daudi cells; CD38^+ Jurkat T cells) (human, UniProt P28907 1-300); experiment: cell-based or functional assay
[2] = target: T1, recombinant human CD38 (Acrobio, ref CD8-H5224) (human, UniProt P28907 43-300); experiment: SPR, Biacore 3000, CM5 chip, recombinant human CD38
T1 construct: Bought protein used in Biacore
Procedure: Binding affinity was measured and reported by the equilibrium dissociation constant (KD). Recombinant human CD38 (Acrobio, ref CD8-H5224) dissolved in milliQ water was used.

EC50, glucose uptake (2-NBDG fluorescence), human Daudi cells [1]	Kd [2]	Binder
~0.1 nM		CRDQNFVILEFPVEEQC [looped peptide CRDQNFVILEFPVEEQC (SEQ ID NO: 9), free peptide]
~13 nM	2.3 nM	NSRDQNFVILEFPVE [CD31 peptide NSRDQNFVILEFPVE (linear)]
